Broadly, the koff is the rate constant with which the complex falls apart. Read a high koff as fast dissociation.

Residue numbers refer to the chain shown, from its start.

The results in this text go back to patent US20240409645A1 (DUALYX, published 2024).

T1: human IL-2Rβ (human, UniProt P14784 27-240, limits assumed)
T1 construct: Recombinant protein, coated (ELISA) or immobilised on CM5 (SPR); also called hu IL-2R; interleukin 2 receptor β-chain
T1 sequence: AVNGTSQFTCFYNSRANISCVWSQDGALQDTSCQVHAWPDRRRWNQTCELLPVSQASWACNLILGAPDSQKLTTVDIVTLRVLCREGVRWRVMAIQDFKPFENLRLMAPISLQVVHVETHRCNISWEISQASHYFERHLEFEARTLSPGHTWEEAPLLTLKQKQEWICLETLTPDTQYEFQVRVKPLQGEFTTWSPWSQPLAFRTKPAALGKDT

B1: FJ1427 P035MP03C10 (VHH)
VHH: QVQLVESGGGLVQAGGSLRLSCAASGRTFSTTEMGWFRQAPGKEREFVAAITWTGRGTMYAESVEGRFTISRENAKNMVYLQMNSLKPEDTAIYYCAAARRGRAAVRSEGGYDFWGQGTQVTVSS
notes: soluble VHH in periplasmic extract; also called clone nr
B2: FJ1427_P035MP02H11 (VHH)
VHH: B1 VHH with Q1E, T122A
notes: as for B1
B3: FJ1427_P035MP02D12 (VHH)
VHH: QVQLVESGGGLVQAGGSLTLSCAASGGAFSSDAKAWFRQAPGKEREFVAAITWAGRGTDYADSVKGRFTITRDNAKATVHLQMNSLKPEDTAVYYCALNPRGVIGPAFRNSNHYTYWGQGTQVTVSS
notes: as for B1
B4: FJ1427_P035MP02F11 (VHH)
VHH: EVQLVESGGGLVQAGGSLRLSCAASGRDFSSYAMGWFRQAPGKEREFVVAITWTKRSTDFPDSVKGRFTISRDNAKNTVYLDMNSLKPEDTAVYYCASARGLPVTPLGDIIYWGEGTLVTVSS
notes: as for B1
B5: FJ1427_P035MP02G11 (VHH)
VHH: B4 VHH with E1Q, V2L
notes: as for B1
B6: FJ1427 P035MP03F07 (VHH)
VHH: B4 VHH with E1Q, D28T, A33V, W53G, K55R, S57T, F60W, K76Q, T105P, Y112H
notes: as for B1
B7: FJ1427_P035MP02C12 (VHH)
VHH: EVQLVESGGGSVQAGGSLRLSCAASGRTFSDYTMGWFRQAPGKEREFVVAITGTGHTTDMPDSVEGRFTISRDNAKNTIYLDMKNLKPGDTAVYYCASARGLPVTPLGDIIYWGEGTLVTVSS
notes: as for B1
B8: FJ1427 P035MP03D01 (VHH)
VHH: QVQLVESGGGLVQPGGSLGLSCAASGFTFDNYAMSWVRQAPGKGLEWVSSITGAGRGTHYADSVKGRFTISRDNAKNTLYLQMNSLKPEDTAVYYCAKYSSSTYYPPTPARGTDYRGPGTQVTVSS
notes: as for B1
B9: FJ1427_P035MP03F02 (VHH)
VHH: B8 VHH with G19R, D30S, H59Y, A75D, S100D, T113I, D114A, Y115D, P118Q, T120I
notes: as for B1
B10: FJ1427 P035MP03D04 (VHH)
VHH: QVQLVESGGGLVQPGGSLRLSCAASGFTFSNYAMSWVRQAPGKELEWVSSITSAGRGTHYADTVKGRFTISRDNDENTLYLQMNSLEPEDTAVYYCAKYSSATYYPPTPAQGRDYRGQGTQVTVSS
notes: soluble VHH in periplasmic extract; also called clone nr; 220
B11: FJ1427_P035MP03E06 (VHH)
VHH: B8 VHH with P14A, G16R
notes: as for B1
B12: FJ1427 P035MP03B01 (VHH)
VHH: B8 VHH with P14A, G19R, D30S, A54F, H59D, K98R, P118Q
notes: as for B1
B13: FJ1427 P035MP02F12 (VHH)
VHH: QLQLVESGGGLVQTGTSLRLSCAASGHTSRINAMGWFRQFPGKEREFVAAISRNGGSTVYVDSVKGRFTISRDNAKSTVYLQMNSLKPEDTAVYYCTATDAVGWTTRWMTADFGFWGQGTQVTVSS
notes: soluble VHH in periplasmic extract; also called clone nr; 190
B14: FJ1427_P035MP03H04 (VHH)
VHH: QVQLVESGGGLVQAGGSLALSCAASGGTFSSYAMGWFRQAPGKEREFVAATTRGGGRTMYAVSTEGRFSCSRDNAKNTVYLLIKNLKPEDTAVYYCAARTSYYDGTYYPASSDFDIWGQGTQVTVSS
notes: as for B1
B15: FJ1427_P035MP03G01 (VHH)
VHH: B14 VHH with Q1E, A19R, S69T, I83M, K84N, N85R, L86V, D104S
notes: as for B1
B16: FJ1427 P035MP03C04 (VHH)
VHH: B14 VHH with Q1E, G16A, A19E, Y80N
notes: as for B1
B17: FJ1427_P035MP03A02 (VHH)
VHH: QVQLVESGGGLVQAGGSLRLSCAASGGTFSSYAMGWFRQAPGKEREFVAATTRGGGRTMYAVSTEGRFTCSRDNAENTVYLQMNSLKPEDTAIYYCAAMTSYYSGTYYPDSSDFDIWGQGTQVTVSS
notes: as for B1
B18: FJ1427 P035MP03E01 (VHH)
VHH: B17 VHH with E76K, Q82L, I93V
notes: as for B1
B19: FJ1427 P035MP03H05 (VHH)
VHH: B14 VHH with V2L
notes: as for B1
B20: FJ1427_P035MP02E12 (VHH)
VHH: QVQLQESGGGLVQAGGSMRLSCAASGRTFSNYVIAWFRQAPGKEREFVGAITQTGRGTFYASSVEGRFTLSRLNDQSTVYLQMNSLNPEDTGVYYCSAPRSGRAGTRNQMDYEYWGQGTQVTVSS
notes: as for B1
B21: FJ1427 P035MP03C02 (VHH)
VHH: QVQLVESGGGLVQVGDSLRLSCAASGRTVGSANMGWFRQAPGKEREFVAVITWSTGSTVYADSVKGRFTISRDNAKNTVYLDMSSLKPEDTAVYYCAADVYPYSGNLNIMDYWGKGTLVTVSS
notes: as for B1
B22: FJ1427 P035MP02B12 (VHH)
VHH: QVQLVESGGGLVQAGGSLRLSCAASGRADSNAIMAWFRQAPGKEREFIVAVTYSGMPTYQDDSVQGRFTASRDNAKNTVYLQMNSLKPEDTAVYYCAARMYSASTYYGDYDYWGQGTQVTVSS
notes: as for B1
B23: FJ1427 P035MP02A12 (VHH)
VHH: QVQLQESGGGLVQAGGSLRLSCAVSGRSFRNYVMGWFRQAPGREREIVAGITQFTSTTYYDDSVKGRFTISRDNAKNTVYLQMNSLKPEDTALYYCAADRSIKMTADWAYWGQGTQVTVSS
notes: as for B1

For the first experiment, the target named is T1, human IL-2Rβ. Description: P.E. binding ELISA on coated protein. As for the experimental part: In a binding ELISA, human or mouse IL-2Rα, IL-2Rβ and IL-2Rγ proteins were coated directly on maxisorp microtiter plates overnight at 4° C. Free binding sites were blocked using 4% Marvel in PBS for 1 hour. Next, 1:5 dilution of P.E. in 1% Marvel/PBS were added to wells and incubated for 1 hour. […] Binding specificity was determined based on O.D. at 450 nm values compared to negative controls.
A general note: In an ELISA, binding on a coated surface is turned into a signal by an enzyme label.
Take B1: the “P.E. binding ELISA OD” value worked out at 0.596 OD450 nm.

Take B2: the “P.E. binding ELISA OD” value amounted to 0.795 OD450 nm.

Consider B3, for which the “P.E. binding ELISA OD” value came to 0.658 OD450 nm.

Consider B4, for which the “P.E. binding ELISA OD” value came out at 0.33 OD450 nm.

For the molecule B5, the “P.E. binding ELISA OD” value was 0.429 OD450 nm.

For B6, the “P.E. binding ELISA OD” value turned out to be 0.156 OD450 nm.

Regarding B7, the “P.E. binding ELISA OD” value was 0.616 OD450 nm.

For the molecule B8, the “P.E. binding ELISA OD” value worked out at 0.307 OD450 nm.

For the molecule B9, the “P.E. binding ELISA OD” value turned out to be 0.113 OD450 nm.

As to B10, the “P.E. binding ELISA OD” value is 0.447 OD450 nm.

For the molecule B11, the “P.E. binding ELISA OD” value was determined as 0.299 OD450 nm.

Turning to B12, the “P.E. binding ELISA OD” value stood at 0.203 OD450 nm.

Take B13: the “P.E. binding ELISA OD” value stood at 0.628 OD450 nm.

As for B14, the “P.E. binding ELISA OD” value is 0.262 OD450 nm.

For B15, the “P.E. binding ELISA OD” value is 0.192 OD450 nm.

As for B16, the “P.E. binding ELISA OD” value amounted to 0.395 OD450 nm.

Turning to B17, the “P.E. binding ELISA OD” value was found to be 0.28 OD450 nm.

Turning to B18, the “P.E. binding ELISA OD” value was determined as 0.329 OD450 nm.

For the molecule B19, the “P.E. binding ELISA OD” value came to 0.316 OD450 nm.

Turning to B20, the “P.E. binding ELISA OD” value came to 0.108 OD450 nm.

As for B21, the “P.E. binding ELISA OD” value is 0.828 OD450 nm.

For B22, the “P.E. binding ELISA OD” value amounted to 1.25 OD450 nm.

B23: the “P.E. binding ELISA OD” value was 0.182 OD450 nm.

A further experiment addresses T1, human IL-2Rβ. Kind of experiment: SPR (Biacore), P.E. off-rate ranking. Background: In SPR one partner is held on a chip, and binding of the other changes the refractive index at the surface.
Consider B1, for which the off-rate constant (koff) is 0.000439 s⁻¹.

With B2, the koff came to 0.000773 s⁻¹.

B3 gave a koff of 0.00144 s⁻¹.

As for B4, the off-rate (koff) was determined as 0.000686 s⁻¹.

Molecule B5 gave an off-rate (koff) of 0.000708 s⁻¹.

B6 showed a dissociation rate constant (koff) of 0.00126 s⁻¹.

B7: the koff stood at 0.00106 s⁻¹.

As to B8, the off-rate constant (koff) amounted to 0.00127 s⁻¹.

Molecule B9 yielded a koff of 0.00191 s⁻¹.

For the molecule B10, the koff came out at 0.0016 s⁻¹.

With B11, the koff turned out to be 0.00116 s⁻¹.

B12 had an off-rate (koff) of 0.0011 s⁻¹.

B13 showed a koff of 0.00294 s⁻¹.

In turn, B14 showed a koff of 0.000431 s⁻¹.

In turn, B15 returned an off-rate constant (koff) of 0.00058 s⁻¹.

On to B16, for which the koff was determined as 0.000307 s⁻¹.

On to B17, for which the koff worked out at 0.00104 s⁻¹.

Regarding B18, the dissociation rate constant (koff) stood at 0.000323 s⁻¹.

The molecule B19 yielded a koff of 0.000772 s⁻¹.

The molecule B20 gave an off-rate (koff) of 0.0115 s⁻¹.

B21 showed an off-rate (koff) of 0.00159 s⁻¹.

As to B22, the koff worked out at 0.000716 s⁻¹.

The molecule B23 registered a koff of 0.00451 s⁻¹.
